According to publication PMC4227789 (Nucleic Acids Research, 2014):

Biological target: p53 DNA-binding domain (residues 92-312), recombinant untagged (Homo sapiens, UniProt P04637)
Assay: ITC

p53 DNA-binding domain (residues 92-312), recombinant untagged, sequence (P04637 92-312): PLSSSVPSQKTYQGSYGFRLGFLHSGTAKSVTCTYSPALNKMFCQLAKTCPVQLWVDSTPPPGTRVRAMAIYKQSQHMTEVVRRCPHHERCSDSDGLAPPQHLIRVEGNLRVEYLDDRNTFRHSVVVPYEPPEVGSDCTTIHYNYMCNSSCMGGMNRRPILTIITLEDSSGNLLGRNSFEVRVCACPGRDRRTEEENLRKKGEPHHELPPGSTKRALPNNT

Kd: ~1000 nM
stoichiometry N: 1
B1: p53 DBD nanobody 139, recombinant V5-tagged (VHH)
VHH: QVQLQESGGGLVQAGGSLRLSCAASERTFSTYAMGWFRQAPGREREFLAQINWSGTTTYYAESVKDRTTISRDNAKNTVYLEMNNLNADDTGIYFCAAHPQRGWGSTLGWTYWGQGTQVTVSS
